{"source": "paper doi:10.1101/2022.03.17.482250", "about": "(bioRxiv, 2022)", "molecules": {"B1": {"name": "Full-length mouse BICDR1 (natural protein)", "chain": "MSAFCLGLAGRASAPAEPDSACCMELPAGAGDAVRSPATAAALVSFPGGPGELELALEEELALLAAGERSSEPGEHPQAEPESPVEGHGPPLPPPPTQDPELLSVIRQKEKDLVLAARLGKALLERNQDMSRQYEQMHKELTDKLEHLEQEKHELRRRFENREGEWEGRVSELETDVKQLQDELERQQLHLREADREKTRAVQELSEQNQRLLDQLSRASEVERQLSMQVHALKEDFREKNSSTNQHIIRLESLQAEIKMLSDRKRELEHRLSATLEENDLLQGTVEELQDRVLILERQGHDKDLQLHQSQLELQEVRLSYRQLQGKVEELTEERSLQSSAATSTSLLSEIEQSMEAEELEQEREQLRLQLWEAYCQVRYLCSHLRGNDSADSAVSTDSSMDESSETSSAKDVPAGSLRTALNDLKRLIQSIVDGVEPTVTLLSVEMTALKEERDRLRVTSEDKEPKEQLQKAIRDRDEAIAKKNAVELELAKCKMDMMSLNSQLLDAIQQKLNLSQQLEAWQDDMHRVIDRQLMDTHLKEQSRPAAAAFPRGHGVGRGQEPSTADGKRLFSFFRKI"}, "B2": {"name": "Dynein light intermediate chain (natural protein)", "chain": "MAPVGVEKKLLLGPNGPAVAAAGDLTSEEEEGQSLWSSILSEVSTRARSKLPSGKNILVFGEDGSGKTTLMTKLQGAEHGKKGRGLEYLYLSVHDEDRDDHTRCNVWILDGDLYHKGLLKFAVSAESLPETLVIFVADMSRPWTVMESLQKWASVLREHIDKMKIPPEKMRELERKFVKDFQDYMEPEEGCQGSPQRRGPLTSGSDEENVALPLGDNVLTHNLGIPVLVVCTKCDAVSVLEKEHDYRDEHLDFIQSHLRRFCLQYGAALIYTSVKEEKNLDLLYKYIVHKTYGFHFTTPALVVEKDAVFIPAGWDNEKKIAILHENFTTVKPEDAYEDFIVKPPVRKLVHDKELAAEDEQVFLMKQQSLLAKQPATPTRASESPARGPSGSPRTQGRGGPASVPSSSPGTSVKKPDPNIKNNAASEGVLASFFNSLLSKKTGSPGSPGAGGVQSTAKKSGQKTVLSNVQEELDRMTRKPDSMVTNSSTENEA"}}, "experiment_in_all_cases": "cryo-EM structure", "key": {"[1]": {"biological_target": "Dynactin (pig (endogenous in pig brain)) (UniProt F2Z5G5)"}, "[2]": {"biological_target": "the molecule itself"}, "[3]": {"biological_target": "B1"}}, "data": [{"molecule": "Human cytoplasmic dynein-1 (from UniProt Q14204;Q13409;O43237;Q9NP97) (complex)", "values": [{"measurement": "stoichiometry N (dynein dimers in the complex)", "setting": "[1]", "value": 2}]}, {"molecule": "B1", "values": [{"measurement": "stoichiometry N (adaptors per dynein-dynactin complex)", "setting": "[1]", "value": 2}, {"measurement": "binding result", "setting": "[2]", "value": "binds"}]}, {"molecule": "B2", "values": [{"measurement": "binding result", "setting": "[3]", "value": "binds"}]}]}
